Article PMC3499301 (mAbs, 2012)

B1: His-tagged Ang2 prepared in-house (Zyngenia) (ligand)
chain: YNNFRKSMDSIGKKQYQVQHGSCSYTFLLPEMDNCRSSSSPYVSNAVQRDAPLEYDDSVQRLQVLENIMENNTQWLMKLENYIQDNMKKEMVEIQQNAVQNQTAVMIEIGTNLLNQTAEQTRKLTDVEAQVLNQTTRLELQLLEHSLSTNKLEKQILDQTSEINKLQDKNSFLEKKVLAMEDKHIIQLQSIKEEKDQLQVLVSKQNSIIEELEKKIVTATVNNSVLQKQQHDLMETVNNLLTMMSTSNSAKDPTVAKEEQISFRDCAEVFKSGHTTNGIYTLTFPNSTEEIKAYCDMEAGGGGWTIIQRREDGSVDFQRTWKEYKVGFGNPSGEYWLGNEFVSQLTNQQRYVLKIHLKDWEGNEAYSLYEHFYLSSEELNYRIHLKGLTGTAGKISSISQPGNDFSTKDGDNDKCICKCSQMLTGGWWFDACGPSNLNGMYYPQRQNTNKFNGIKWYYWKGSGYSLKATTMMIRPADF
B2: Recombinant human Ang2 (R&D Systems) (ligand)
chain: B1 chain

Key:
[1] = target: the molecule itself
[2] = target: soluble human Tie2-Fc (human, UniProt Q02763); assay: ELISA
soluble human Tie2-Fc, sequence (Q02763 23-748): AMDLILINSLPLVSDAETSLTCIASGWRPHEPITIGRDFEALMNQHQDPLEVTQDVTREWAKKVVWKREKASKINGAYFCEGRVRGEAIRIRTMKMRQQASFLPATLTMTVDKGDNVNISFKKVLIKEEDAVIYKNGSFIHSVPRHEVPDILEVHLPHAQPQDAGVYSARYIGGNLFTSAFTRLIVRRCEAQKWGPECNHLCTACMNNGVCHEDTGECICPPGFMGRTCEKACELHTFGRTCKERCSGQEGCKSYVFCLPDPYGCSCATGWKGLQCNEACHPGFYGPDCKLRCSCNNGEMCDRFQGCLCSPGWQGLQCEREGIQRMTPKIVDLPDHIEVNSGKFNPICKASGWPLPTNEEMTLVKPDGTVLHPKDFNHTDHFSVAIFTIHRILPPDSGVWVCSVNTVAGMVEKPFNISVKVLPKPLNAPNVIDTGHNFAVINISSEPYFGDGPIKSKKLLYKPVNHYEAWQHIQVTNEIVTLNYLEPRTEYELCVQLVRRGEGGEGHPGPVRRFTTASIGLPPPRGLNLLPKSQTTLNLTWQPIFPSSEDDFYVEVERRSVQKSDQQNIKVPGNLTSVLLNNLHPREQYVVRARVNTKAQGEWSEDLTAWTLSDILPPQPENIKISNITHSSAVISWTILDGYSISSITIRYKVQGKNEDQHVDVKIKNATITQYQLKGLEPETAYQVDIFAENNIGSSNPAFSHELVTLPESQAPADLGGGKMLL

| Binder | stoichiometry N [1] | binding result [2] |
| --- | --- | --- |
| B1 | 2 |  |
| B2 |  | binds |
